Results reported in patent US7871610B2, “Antibodies to Tie1 ectodomain” (Dyax Corp., priority 2003, dated 2011).

Key:
[1] = target: T1, Tie1-EpoR chimeric receptor (UniProt P14753+P35590); experiment: Ba/F3 bioassay (Tie1/EpoR chimeric BaF3 cell assay), MTT viability; format: cell-based, human; settings: 100 ng/ml E3 IgG together with 100 (1:1) or 500 (1:5) ng/ml of the other antibody
T1 construct: the PCR amplified extracellular part of human Tie1 (bp 37-2316 of X60975); expressed in transfected cells
T1 sequence (P35590+P14753 with tags, fused parts or gaps): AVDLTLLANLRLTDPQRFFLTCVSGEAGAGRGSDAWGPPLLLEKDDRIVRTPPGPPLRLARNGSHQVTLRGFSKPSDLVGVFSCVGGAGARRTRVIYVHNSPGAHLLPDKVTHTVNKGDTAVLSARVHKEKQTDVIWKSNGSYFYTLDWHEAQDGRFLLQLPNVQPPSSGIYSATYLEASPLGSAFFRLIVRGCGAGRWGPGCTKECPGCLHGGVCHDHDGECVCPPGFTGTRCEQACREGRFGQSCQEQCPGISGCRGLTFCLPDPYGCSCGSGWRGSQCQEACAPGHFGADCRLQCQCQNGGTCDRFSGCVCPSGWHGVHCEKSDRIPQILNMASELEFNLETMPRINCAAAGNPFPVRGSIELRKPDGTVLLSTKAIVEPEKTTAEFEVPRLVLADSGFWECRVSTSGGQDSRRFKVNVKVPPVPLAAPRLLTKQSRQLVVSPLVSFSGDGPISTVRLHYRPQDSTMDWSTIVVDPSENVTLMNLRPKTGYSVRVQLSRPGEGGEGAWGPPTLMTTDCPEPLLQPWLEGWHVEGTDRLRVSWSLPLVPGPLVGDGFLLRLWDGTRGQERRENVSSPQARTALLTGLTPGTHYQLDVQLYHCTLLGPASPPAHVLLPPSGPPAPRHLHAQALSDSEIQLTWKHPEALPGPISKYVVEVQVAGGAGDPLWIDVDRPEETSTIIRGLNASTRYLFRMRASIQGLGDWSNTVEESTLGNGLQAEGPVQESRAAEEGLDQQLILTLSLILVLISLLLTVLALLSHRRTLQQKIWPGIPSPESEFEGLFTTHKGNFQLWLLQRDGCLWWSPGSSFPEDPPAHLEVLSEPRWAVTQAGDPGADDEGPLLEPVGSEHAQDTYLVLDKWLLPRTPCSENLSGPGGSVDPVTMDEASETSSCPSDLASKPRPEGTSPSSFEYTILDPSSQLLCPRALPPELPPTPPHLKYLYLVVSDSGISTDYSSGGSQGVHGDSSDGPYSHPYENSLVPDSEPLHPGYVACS
Text: To generate Tie1-EpoR expressing Ba/F3 cells for the bioassay, Ba/F3 pre-B cells were stably transfected with a nucleic acid that expresses chimeric receptor containing the extracellular domain of human Tie1 fused with the transmembrane and cytoplasmic domains of the mouse erythropoietin receptor. The nucleic acid used was a Tie1-EpoR chimeric cDNA in a pEF-BOS expression vector. The nucleic acid encoding the chimeric receptor was constructed by cloning the PCR amplified extracellular part of human Tie1 (bp 37-2316 of X60975) as EcoRI-BglII fragment into mEpoR-pcDNA vector. The cDNA encoding for the chimeric receptor consisting of the extracellular part of Tie1 fused with the transmembrane and intracellular domains of EpoR was subcloned into the pEF-BOS expression vector. Vector was linearized and co-transfected into Ba/F3 cells with pcDNA3.1(+) Zeo vector (Invitrogen). Stable cell pools were generated by selection with 250 μg/ml Zeocin. The expression of Tie1/EpoR fusion protein in several clones was analyzed by Western blotting with an antibody against EpoR.
To perform the assays, Ba/F3 cells expressing the Tie 1-EpoR chimera were split in 96-well microtiter plates at 50 000 cells/well in the presence of the indicated concentrations of anti-Tie1 antibodies. As controls, Zeocin resistant pools not expressing the Tie1-EpoR were used. After 48 h, the viability of the cells was determined by adding MTT (3-(4,5-dimethylthiazol-2-yl)-2,5-diphenyl tetrazolium bromide (Sigma), 0.5 mg/ml), followed by further 2 h of culture, addition of an equal volume of cell lysis solution (10% SDS, 10 mM HCl) and incubation overnight at 37° C. Absorbance was measured at 540 nm.
Although no ligand for Tie1 has been identified, we used the following efficient screening method for Tie1-binding proteins. Interleukin-3 dependent pre-B-lymphocyte (Ba/F3) cells were transfected with a construct that expresses a Tie1-EpoR fusion protein. Since Ba/F3 cells are IL-3 dependent, they die unless IL-3 is provided. However, Tie-EpoR receptor expressing Ba/F3 cells can survive and proliferate if the medium contains a Tie1-binding protein, either a natural ligand or an artificial mimetic. Cell survival can be quantitated, e.g., by colorimetric MTT-assay, which measures mitochondrial activity.

Tie1 = Tie1 (Homo sapiens, UniProt P35590); experiment: Immunofluorescence staining of Tie1-transfected COS1 cells; format: binding; settings: COS1 cells transfected with pcDNA3-Tie1-V5; antibodies 5 μg/ml
Sequence of Tie1 (P35590 22-1138): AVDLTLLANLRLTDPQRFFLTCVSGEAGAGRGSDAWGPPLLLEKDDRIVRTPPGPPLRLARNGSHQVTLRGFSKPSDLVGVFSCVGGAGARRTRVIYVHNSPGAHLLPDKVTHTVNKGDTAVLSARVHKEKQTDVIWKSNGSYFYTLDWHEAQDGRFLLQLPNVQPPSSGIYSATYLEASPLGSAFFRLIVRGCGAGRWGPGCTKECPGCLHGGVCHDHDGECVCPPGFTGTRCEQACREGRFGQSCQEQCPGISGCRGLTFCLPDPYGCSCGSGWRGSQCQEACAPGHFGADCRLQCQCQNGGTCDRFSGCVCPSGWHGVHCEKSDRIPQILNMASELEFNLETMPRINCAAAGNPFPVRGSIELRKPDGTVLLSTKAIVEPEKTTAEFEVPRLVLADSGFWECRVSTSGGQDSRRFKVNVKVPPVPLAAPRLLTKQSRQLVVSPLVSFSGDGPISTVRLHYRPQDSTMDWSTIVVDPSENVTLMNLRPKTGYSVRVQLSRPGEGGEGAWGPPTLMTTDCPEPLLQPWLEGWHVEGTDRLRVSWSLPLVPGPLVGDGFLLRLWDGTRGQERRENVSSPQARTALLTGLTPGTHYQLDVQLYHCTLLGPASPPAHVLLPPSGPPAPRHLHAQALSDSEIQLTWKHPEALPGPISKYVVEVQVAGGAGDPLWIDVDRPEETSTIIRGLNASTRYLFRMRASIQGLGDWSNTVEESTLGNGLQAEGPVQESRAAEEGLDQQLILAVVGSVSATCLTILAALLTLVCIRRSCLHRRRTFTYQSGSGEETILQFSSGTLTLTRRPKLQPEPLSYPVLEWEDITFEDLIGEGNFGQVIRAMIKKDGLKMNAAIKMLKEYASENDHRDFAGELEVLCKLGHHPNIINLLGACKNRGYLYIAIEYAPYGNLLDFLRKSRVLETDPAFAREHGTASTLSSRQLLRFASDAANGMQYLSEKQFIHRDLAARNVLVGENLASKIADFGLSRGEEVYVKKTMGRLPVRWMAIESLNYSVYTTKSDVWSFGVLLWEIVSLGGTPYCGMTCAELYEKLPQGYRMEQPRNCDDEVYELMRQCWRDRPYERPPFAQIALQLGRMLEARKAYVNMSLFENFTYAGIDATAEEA
Procedure: COS1 cells on the glass coverslips were transiently transfected with pcDNA3-Tie1-V5 (the V5-epitope was added to the 3′ terminus of pcDNA3-Tie1) (1 μg DNA per 10 cm cell culture plate) using FUGENE™ 6 (Roche) according to manufacturer's instruction and incubated for 48 h before staining. Cells were fixed in 4% paraformaldehyde for 10 min at 4° C. If required, the cells were permeabilized with 0.2% Triton X-100 in PBS for 5 min. Unspecific binding sites were blocked by incubation with 1% BSA in PBS for 30 min. The cells were then stained with anti-Tie1 antibodies (5 μg/ml) and anti-V5 antibodies for 1 h at room temperature, followed by incubation with FITC— conjugated anti-human antibodies (DAKO, 40 μg/ml) and TRITC-conjugated anti-mouse antibodies (DAKO, 15 μg/ml) for 30 min. Hoechst 33258 fluorochrome (Sigma, 0.5 μg/ml) was used for the staining of the nuclei.

IF: Tie1-transfected (Tie1): weak
B1: P-B1: anti-Tie1 antibody; VH SEQ ID NO:20, VL SEQ ID NO:22 (antibody, V domains shown)
VH: EVQLLESGGGLVQPGGSLRLSCAASGFTFSRYPMVWVRQAPGKGLEWVSVISPSGGQTFYADSVKGRFTISRDNSKNTLYLQMNSLRAEDTAVYYCARGVLTTAFDIWGQGTMVTVSSASTKGPSVFPLAPSSKAPLGAQRPWAAWSR
VL: QDIQMTQSPSSLSASVGDRVTITCRASQNINSYLNWYQQKPGQAPKLLIYAASNLETAVPSRFSGSGSGTDFTLTISSLQPEDFATYYCQQFNTYPLTFGGG
modifications: Synthetically generated peptide
effect on the survival effect of E3 IgG in Tie1-EpoR Ba/F3 assay [1]: inhibited the viability effect of E3 IgG to some extent
